Assay results published in patent publication US20230134571A1 (INTERNATIONAL AIDS VACCINE INITIATIVE, published 2023).
Residue numbers refer to the chain shown, from its start.

Key:
Assay in all cases: cell-based or functional assay
[1] = target: HIV Env of isolate QH0692.42 (clade B) (HIV)
[2] = target: HIV Env of isolate HIV-001428-2.42 (clade C) (HIV)
[3] = target: HIV Env of isolate Ce1176_A3 (clade C) (HIV)
[4] = target: HIV Env of isolate 249MB10 (clade C) (HIV)
[5] = target: HIV Env of isolate 6811.v7.c18 (clade CD) (HIV)
[6] = target: HIV Env of isolate SC05_8C11_2344 (clade B) (HIV)
[7] = target: HIV Env of isolate T255-34 (clade AG) (HIV)
[8] = target: HIV Env of isolate BF1266.431a (clade C) (HIV)
[9] = target: HIV Env of isolate BJOX028000.10.3 (clade AE) (HIV)
[10] = target: HIV Env of isolate CNE17 (clade BC) (HIV)
[11] = target: HIV Env of isolate T211-9 (clade AG) (HIV)
[12] = target: HIV Env, isolate CNE30 (HIV)
[13] = target: HIV Env, isolate 3016.v5.c45 (HIV)
[14] = target: HIV Env, isolate ZM109F.PB4 (HIV)
[15] = target: HIV Env, isolate Du422.1 (HIV)
[16] = target: HIV Env, isolate CAP210.2.00.E8 (HIV)
[17] = target: HIV Env, isolate CAAN5342.A2 (HIV)
[18] = target: HIV Env, isolate X1632_S2_B10 (HIV)
[19] = target: HIV Env, isolate 1394C9G1(Rev-) (HIV)
[20] = target: HIV Env, isolate 249MB10 (HIV)
[21] = target: HIV Env, isolate 19157834_V1 (HIV)
[22] = target: HIV Env, isolate So431_C1_1 (HIV)
[23] = target: HIV Env, isolate CH0505.w4.3 (HIV)
[24] = target: HIV Env, isolate 235080_3G7env2(Rev-) (HIV)
[25] = target: HIV Env, isolate CeCAP188_1_D1_14(Rev-) (HIV)
[26] = target: HIV Env, isolate 20286961_C1_H8 (HIV)
[27] = target: HIV Env, isolate 18814602_H8_F3 (HIV)
[28] = target: HIV Env, isolate Ko870_C2_10 (HIV)
[29] = target: HIV Env, isolate 3426.v5.c17 (HIV)
[30] = target: HIV Env, isolate TRP363.2.00_10_3 (HIV)
[31] = target: HIV Env, isolate SO032_A2.8-1 (HIV)
[32] = target: HIV Env, isolate ZM214M.PL15 (HIV)
[33] = target: HIV Env, isolate CAP136.1.16_E6_1 (HIV)
[34] = target: HIV Env, isolate 2865_A11.12 (HIV)
[35] = target: HIV Env, isolate 20915593 (HIV)
[36] = target: HIV Env, isolate 21197826_V1 (HIV)
[37] = target: HIV Env, isolate CH064.env (HIV)
[38] = target: HIV Env, isolate 6146.v7.c23 (HIV)
[39] = target: HIV Env, isolate Ce0665_F2 (HIV)

B1: ePGDM13 (antibody, V domains shown)
VH: QAQLVQSGPEVRKPGTSVKVSCKNPGNTLTTYDLHWVRQVPGQGLQWMGWISHEGDKKVIVERFKAKVTIDWDRSTNTAYLQLSGLTSEDTAVYYCAKGSKHRLRDYALYDEDGALNWAVDVDYLANLEFWGQGTAVTVSS
VL: DIVLTQSPLSLSVTPGESASISCKSSHSLQHGDRNNYLAWYVQKPGRSPQLLLDLASERASGVPDRFSGSGSEKDFTLKISRVETEDVGTYYCMQGRESPWTFGQGTKVDIK
IC50 (µg/ml) with constrains [1]: > 100 µg/mL | IC50 (µg/ml) with constrains [2]: 0.003 µg/mL | IC50 (µg/ml) with constrains [3]: 0.031 µg/mL | IC50 (µg/ml) with constrains [4]: 0.032 µg/mL | IC50 (µg/ml) with constrains [5]: > 100 µg/mL | IC50 (µg/ml) with constrains [6]: 2.36 µg/mL | IC50 (µg/ml) with constrains [7]: 0.007 µg/mL | IC80 (µg/ml) with constrains [7]: 0.029 µg/mL | IC50 (µg/ml) with constrains [8]: 0.004 µg/mL | IC50 (µg/ml) with constrains [9]: 0.035 µg/mL | IC80 (µg/ml) with constrains [9]: 0.139 µg/mL | IC50 (µg/ml) with constrains [10]: 0.008 µg/mL | IC50 (µg/ml) with constrains [11]: 0.028 µg/mL | IC80 (µg/ml) with constrains [11]: 0.113 µg/mL

B2: PGDM1400 (antibody, V domains shown)
VH: B1 VH with A2V, Q3H, V5T, N24A, T30K, Q39S, E89G, E112D, A126S
VL: B1 VL with I2F, L9H, Q30I, L53I, D54Y, E58S, E73D
IC50 (µg/ml) with constrains [1]: > 100 µg/mL | IC50 (µg/ml) with constrains [2]: 0.014 µg/mL | IC50 (µg/ml) with constrains [3]: 0.526 µg/mL | IC50 (µg/ml) with constrains [4]: 0.021 µg/mL | IC50 (µg/ml) with constrains [5]: > 100 µg/mL | IC50 (µg/ml) with constrains [6]: 4.46 µg/mL | IC50 (µg/ml) with constrains [7]: 0.046 µg/mL | IC80 (µg/ml) with constrains [7]: 0.182 µg/mL | IC50 (µg/ml) with constrains [8]: 0.006 µg/mL | IC50 (µg/ml) with constrains [9]: 0.121 µg/mL | IC80 (µg/ml) with constrains [9]: 0.483 µg/mL | IC50 (µg/ml) with constrains [10]: 0.005 µg/mL | IC50 (µg/ml) with constrains [11]: 0.058 µg/mL | IC80 (µg/ml) with constrains [11]: 0.234 µg/mL

B3: ePGDM5 (antibody, V domains shown)
VH: B1 VH
VL: B1 VL with I2F, S26D, L53I, E73R, S81D, T85A
IC80 (µg/ml) with constrains [12]: > 100 µg/mL | IC80 (µg/ml) with constrains [13]: > 100 µg/mL | IC80 (µg/ml) with constrains [14]: 0.121 µg/mL | IC80 (µg/ml) with constrains [15]: 34.6 µg/mL | IC80 (µg/ml) with constrains [16]: 0.226 µg/mL | IC80 (µg/ml) with constrains [17]: > 100 µg/mL | IC80 (µg/ml) with constrains [18]: 0.012 µg/mL | IC80 (µg/ml) with constrains [19]: 0.009 µg/mL | IC80 (µg/ml) with constrains [20]: 0.045 µg/mL

B4: ePGDM9 (antibody, V domains shown)
VH: B1 VH
VL: B1 VL with H27Q, Q30I, L53I, E73R
IC80 (µg/ml) with constrains [12]: > 100 µg/mL | IC80 (µg/ml) with constrains [13]: > 100 µg/mL | IC80 (µg/ml) with constrains [14]: 0.106 µg/mL | IC80 (µg/ml) with constrains [15]: 53.2 µg/mL | IC80 (µg/ml) with constrains [16]: 0.221 µg/mL | IC80 (µg/ml) with constrains [17]: 70.1 µg/mL | IC80 (µg/ml) with constrains [18]: 0.01 µg/mL | IC80 (µg/ml) with constrains [19]: 0.005 µg/mL | IC80 (µg/ml) with constrains [20]: 0.028 µg/mL | IC50 [21]: 31.7 µg/mL | IC80 [21]: > 50 µg/mL | IC50 [22]: > 50 µg/mL | IC80 [22]: > 50 µg/mL | IC50 [23]: 0.001 µg/mL | IC80 [23]: 0.011 µg/mL | IC50 [24]: 0.002 µg/mL | IC80 [24]: 0.005 µg/mL | IC50 [25]: > 50 µg/mL | IC80 [25]: > 50 µg/mL | IC50 [26]: 0.023 µg/mL | IC80 [26]: > 50 µg/mL | IC50 [27]: < 0.0006 µg/mL | IC80 [27]: 0.002 µg/mL | IC50 [28]: 0.001 µg/mL | IC80 [28]: 0.021 µg/mL | IC50 [29]: < 0.0006 µg/mL | IC80 [29]: 0.002 µg/mL | IC50 [30]: 1.81 µg/mL | IC80 [30]: > 50 µg/mL | IC50 [31]: > 50 µg/mL | IC80 [31]: > 50 µg/mL | IC50 [32]: > 50 µg/mL | IC80 [32]: > 50 µg/mL | IC50 [33]: > 50 µg/mL | IC80 [33]: > 50 µg/mL | IC50 [34]: 0.071 µg/mL | IC80 [34]: 0.258 µg/mL | IC50 [35]: 0.004 µg/mL | IC80 [35]: 0.015 µg/mL | IC50 [36]: 12.7 µg/mL | IC80 [36]: 34.6 µg/mL | IC50 [37]: 0.333 µg/mL | IC80 [37]: 1.62 µg/mL | IC50 [38]: 0.019 µg/mL | IC80 [38]: 0.249 µg/mL | IC50 [39]: 22.4 µg/mL | IC80 [39]: > 50 µg/mL

B5: ePGDM13 (antibody, V domains shown)
VH: B1 VH
VL: B1 VL
IC80 (µg/ml) with constrains [12]: > 100 µg/mL | IC80 (µg/ml) with constrains [13]: > 100 µg/mL | IC80 (µg/ml) with constrains [14]: 0.196 µg/mL | IC80 (µg/ml) with constrains [15]: > 100 µg/mL | IC80 (µg/ml) with constrains [16]: 0.538 µg/mL | IC80 (µg/ml) with constrains [17]: > 100 µg/mL | IC80 (µg/ml) with constrains [18]: 0.013 µg/mL | IC80 (µg/ml) with constrains [19]: 0.011 µg/mL | IC80 (µg/ml) with constrains [20]: 0.13 µg/mL

B6: ePGDM9 (antibody, V domains shown)
VH: B1 VH
VL: B1 VL with H27Q, Q30I, L53I, E73R
IC50 (µg/ml) with constrains [1]: > 100 µg/mL | IC50 (µg/ml) with constrains [2]: 0.002 µg/mL | IC50 (µg/ml) with constrains [3]: 0.022 µg/mL | IC50 (µg/ml) with constrains [4]: 0.007 µg/mL | IC50 (µg/ml) with constrains [5]: > 100 µg/mL | IC50 (µg/ml) with constrains [6]: 1.06 µg/mL | IC50 (µg/ml) with constrains [7]: 0.002 µg/mL | IC80 (µg/ml) with constrains [7]: 0.008 µg/mL | IC50 (µg/ml) with constrains [8]: 0.002 µg/mL | IC50 (µg/ml) with constrains [9]: 0.019 µg/mL | IC80 (µg/ml) with constrains [9]: 0.078 µg/mL | IC50 (µg/ml) with constrains [10]: 0.003 µg/mL | IC50 (µg/ml) with constrains [11]: 0.02 µg/mL | IC80 (µg/ml) with constrains [11]: 0.081 µg/mL

B7: ePGDM5 (antibody, V domains shown)
VH: B1 VH
VL: B1 VL with I2F, S26D, L53I, E73R, S81D, T85A
IC50 (µg/ml) with constrains [1]: > 100 µg/mL | IC50 (µg/ml) with constrains [2]: 0.003 µg/mL | IC50 (µg/ml) with constrains [3]: 0.022 µg/mL | IC50 (µg/ml) with constrains [4]: 0.011 µg/mL | IC50 (µg/ml) with constrains [5]: > 100 µg/mL | IC50 (µg/ml) with constrains [6]: 3.62 µg/mL | IC50 (µg/ml) with constrains [7]: 0.018 µg/mL | IC80 (µg/ml) with constrains [7]: 0.071 µg/mL | IC50 (µg/ml) with constrains [8]: 0.004 µg/mL | IC50 (µg/ml) with constrains [9]: 0.021 µg/mL | IC80 (µg/ml) with constrains [9]: 0.086 µg/mL | IC50 (µg/ml) with constrains [10]: 0.007 µg/mL | IC50 (µg/ml) with constrains [11]: 0.025 µg/mL | IC80 (µg/ml) with constrains [11]: 0.099 µg/mL

B8: PGDM1400 (antibody, V domains shown)
VH: B1 VH with A2V, Q3H, V5T, N24A, T30K, Q39S, E89G, E112D, A126S
VL: B1 VL with I2F, L9H, Q30I, L53I, D54Y, E58S, E73D
IC80 (µg/ml) with constrains [12]: > 100 µg/mL | IC80 (µg/ml) with constrains [13]: > 100 µg/mL | IC80 (µg/ml) with constrains [14]: 0.39 µg/mL | IC80 (µg/ml) with constrains [15]: > 100 µg/mL | IC80 (µg/ml) with constrains [16]: 1.32 µg/mL | IC80 (µg/ml) with constrains [17]: > 100 µg/mL | IC80 (µg/ml) with constrains [18]: 0.135 µg/mL | IC80 (µg/ml) with constrains [19]: 0.012 µg/mL | IC80 (µg/ml) with constrains [20]: 0.085 µg/mL
